This note sets out measurements from patent US9266940 (Novo Nordisk, dated 2016).

Assay [1] deals with T1, human GLP-1 receptor (human, UniProt P43220 24-463).
T1 construct: whole, on cells; Used as purified plasma membranes of the stably transfected BHK cell line, not as intact cells; also called hGLP-1
In words: SPA displacement assay; IC50 at 2.0% HSA over IC50 at 0.001% HSA. The method, then: (§1) A shift in the binding affinity, $IC50$, is an indication that the peptide in question binds to albumin, and thereby a prediction of a potential protracted pharmacokinetic profile of the peptide in question in animal models.
(§2) 50 ul (micro liter) HSA ("high albumin" experiment containing 2% HSA), or buffer ("low albumin" experiment containing 0.001% HSA), was added to Optiplate, and 25 ul of test compounds were added. 5-10 ug membrane protein/sample was added (50 ul) corresponding to 0.1-0.2 mg protein/ml (to be preferably optimised for each membrane preparation). SPA-particles (Wheatgerm agglutinin SPA beads, Perkin Elmer, #RPNQ0001) were added in an amount of 0.5 mg/well (50 ul). […] The plates were sealed with PlateSealer and incubated for 120 minutes at 30° C. while shaking. The plates were centrifuged (1500 rpm, 10 min) and counted in Topcounter.

Assay [2] deals with T1, human GLP-1 receptor. In words: SPA, displacement of 125I-GLP-1(7-36)NH2 from hGLP-1R BHK membranes, high HSA (2.0%). How it is done: as §1, §2
Assay [3] has as its target T1, human GLP-1 receptor. Briefly: cell-based or functional assay.
Assay [4] addresses T1, human GLP-1 receptor. In words: SPA, displacement of 125I-GLP-1(7-36)NH2 from hGLP-1R BHK membranes, low HSA (0.001%). The method, then: as §1, §2
(In general: Displacement assays read how much labelled ligand stays bound in the presence of the test substance.)

In general, IC50 refers to the midpoint of a concentration-inhibition curve.

Numbered stars: 1 amine (or outer) side, 2 acyl side, 3 side chain; on linkers, the order of the positions; unused ones are H or OH. Square brackets hold non-standard residues; d marks the D form. Side chains are listed from the residue outwards. Ends that are not written are not given here. * marks the point of attachment. Decanoyl(10-(4-HOOC-PhO)) = O=C(O)c1ccc(OCCCCCCCCCC(=O)*)cc1; d(γGlu) = O=C(O)[C@@H](CCC(=O)[*:2])N[*:1]; γGlu = O=C(O)[C@H](CCC(=O)[*:2])N[*:1]; C14 diacid = O=C(O)CCCCCCCCCCCCC(=O)*; AEEA = NCCOCCOCC(=O)O; Aib = CC(C)(N)C(=O)O

H[Aib]EGTFTSDVSSYLEK([AEEA-AEEA-γGlu-C14 diacid])QAVRK([AEEA-AEEA-γGlu-C14 diacid])FIAHLVRGRG: the “Ratio [(IC50/nM) high HSA]/[(IC50/nM) low HSA]” value (shortened to “Ratio”) in the assay with human GLP-1 receptor [1] turned out to be 174. Moreover, the IC50 with human GLP-1 receptor [2] came out at 21 nM; with human GLP-1 receptor [4], 0.12 nM. Moreover, the “EC50/pM (in vitro potency, cAMP formation, AlphaScreen)” value (“EC50/pM” for short) with human GLP-1 receptor [3] came to 9 pM.
For HAEGTFTSDVSSYLEEQAVRK([AEEA-AEEA-γGlu-Decanoyl(10-(4-HOOC-PhO))])FIAWLVRGRK([AEEA-AEEA-γGlu-Decanoyl(10-(4-HOOC-PhO))]) the same measures were 217, 33 nM, 0.15 nM and 143 pM.
Regarding HAEGTFTSDVSSYLEGQAVRK([γGlu-AEEA-AEEA-d(γGlu)-Decanoyl(10-(4-HOOC-PhO))])FIAWLVQGK([γGlu-AEEA-AEEA-d(γGlu)-Decanoyl(10-(4-HOOC-PhO))])G (also called 26), the “Ratio” value with human GLP-1 receptor [1] worked out at 143. The IC50 with human GLP-1 receptor [2] turned out to be 54 nM; with human GLP-1 receptor [4], 0.38 nM. Moreover, the “EC50/pM” value with human GLP-1 receptor [3] stood at 200 pM.
With HAEGTFTSDVSSYLEK([AEEA-AEEA-γGlu-C14 diacid])QAVRK([AEEA-AEEA-γGlu-C14 diacid])FIEWLVQGRG (also called 11), the “Ratio” value with human GLP-1 receptor [1] stood at 926. Moreover, the results for the 50% inhibitory concentration (IC50) in the assay with human GLP-1 receptor [2] and in the assay with human GLP-1 receptor [4] were 213 nM and 0.23 nM, respectively. Further, the “EC50/pM” value in the assay with human GLP-1 receptor [3] is 81 pM.
In the case of HAEGTFTSDVSSYLEK([γGlu-AEEA-AEEA-C14 diacid])QAVRK([γGlu-AEEA-AEEA-C14 diacid])FIEWLVQGRG (also called 20), the “Ratio” value in the assay with human GLP-1 receptor [1] is 1750. Besides, the IC50 in the assay with human GLP-1 receptor [2] worked out at 333 nM; in the assay with human GLP-1 receptor [4], 0.19 nM. Besides, the “EC50/pM” value with human GLP-1 receptor [3] was found to be 67 pM.
The like results for HAEGTFTSDVSSYLEEQK([AEEA-AEEA-γGlu-Decanoyl(10-(4-HOOC-PhO))])VRK([AEEA-AEEA-γGlu-Decanoyl(10-(4-HOOC-PhO))])FIAWLVRGRG (also called 28) were, in that order, 144, 29 nM, 0.2 nM and 68 pM.
For HAEGTFTSDVSSYLEEQK([AEEA-AEEA-γGlu-C14 diacid])VRK([AEEA-AEEA-γGlu-C14 diacid])FIAHLVRGRG (also called 24) the same measures were 18, 50 nM, 2.74 nM and 70 pM.
As for HAEGTFTSDVSSYLEGQAVRK([AEEA-AEEA-γGlu-γGlu-Decanoyl(10-(4-HOOC-PhO))])FIAWLVQGK([AEEA-AEEA-γGlu-γGlu-Decanoyl(10-(4-HOOC-PhO))])G (also called 23), the “Ratio” value with human GLP-1 receptor [1] was found to be 47. Further, the half-inhibitory concentration (IC50) was 40 nM in the assay with human GLP-1 receptor [2] and 0.85 nM with human GLP-1 receptor [4]. Moreover, the “EC50/pM” value in the assay with human GLP-1 receptor [3] is 140 pM.
For HAEGTFTSDVSSYLEGQAVRK([AEEA-AEEA-γGlu-C14 diacid])FIAHLVQGRK([AEEA-AEEA-γGlu-C14 diacid]) (also called 16), in the assay with human GLP-1 receptor [1], the “Ratio” value is 127. Moreover, the IC50 was found to be 25 nM in the assay with human GLP-1 receptor [2] and 0.2 nM with human GLP-1 receptor [4]. Also, the “EC50/pM” value with human GLP-1 receptor [3] came to 21 pM.
For HAEGTFTSDVSSYLEEQAARK([AEEA-AEEA-γGlu-Decanoyl(10-(4-HOOC-PhO))])FIAWLVRGRK([AEEA-AEEA-γGlu-Decanoyl(10-(4-HOOC-PhO))]) the same measures were 219, 42 nM, 0.19 nM and 26 pM.
Turning to HAEGTFTSDVSSYLEEEAVRK([AEEA-AEEA-γGlu-C14 diacid])FIAHLVQGRK([AEEA-AEEA-γGlu-C14 diacid]) (also called 17), in the assay with human GLP-1 receptor [1], the “Ratio” value was 387. In addition, the IC50 was found to be 174 nM with human GLP-1 receptor [2] and 0.45 nM in the assay with human GLP-1 receptor [4]. In the assay with human GLP-1 receptor [3], the “EC50/pM” value came to 17 pM.
Turning to HAEGTFTSDVSSYLEGQAARK([AEEA-AEEA-γGlu-Decanoyl(10-(4-HOOC-PhO))])FIEWLVRGK([AEEA-AEEA-γGlu-Decanoyl(10-(4-HOOC-PhO))])GE, in the assay with human GLP-1 receptor [1], the “Ratio” value amounted to 246. Besides, the IC50 with human GLP-1 receptor [2] was found to be 123 nM; with human GLP-1 receptor [4], 0.5 nM. Further, the “EC50/pM” value with human GLP-1 receptor [3] turned out to be 96 pM.
For HAEGTFTSDVSSYLEGQAVRK([AEEA-AEEA-γGlu-Decanoyl(10-(4-HOOC-PhO))])FIEWLVRGK([AEEA-AEEA-γGlu-Decanoyl(10-(4-HOOC-PhO))])GQ (also called 12) the same measures were 453, 72 nM, 0.16 nM and 41 pM.
Regarding HAEGTFTSDVSSYLEGQAVRK([AEEA-AEEA-γGlu-Decanoyl(10-(4-HOOC-PhO))])FIEWLVQGK([AEEA-AEEA-γGlu-Decanoyl(10-(4-HOOC-PhO))])GE (also called 13), in the assay with human GLP-1 receptor [1], the “Ratio” value is 804. In addition, the IC50 worked out at 201 nM with human GLP-1 receptor [2] and 0.25 nM in the assay with human GLP-1 receptor [4]. Besides, the “EC50/pM” value with human GLP-1 receptor [3] turned out to be 79 pM.
Take HAEGTFTSDVSSYLEEQAAHK([AEEA-AEEA-γGlu-Decanoyl(10-(4-HOOC-PhO))])FIEWLVRGK([AEEA-AEEA-γGlu-Decanoyl(10-(4-HOOC-PhO))])GE (also called 21): the “Ratio” value with human GLP-1 receptor [1] was 163. Moreover, the values for the IC50 with human GLP-1 receptor [2] and in the assay with human GLP-1 receptor [4] were 256 nM and 1.57 nM, respectively. In the assay with human GLP-1 receptor [3], the “EC50/pM” value came out at 52 pM.
On to HAEGTFTSDVSSYLEGQAAHK([AEEA-AEEA-γGlu-Decanoyl(10-(4-HOOC-PhO))])FIEWLVRGK([AEEA-AEEA-γGlu-Decanoyl(10-(4-HOOC-PhO))])GE (also called 10), for which the “Ratio” value in the assay with human GLP-1 receptor [1] was found to be 70. In addition, the IC50 in the assay with human GLP-1 receptor [2] is 452 nM; with human GLP-1 receptor [4], 6.49 nM. The “EC50/pM” value with human GLP-1 receptor [3] came out at 214 pM.
The like results for HAEGTFTSDVSSYLEEQK([γGlu-AEEA-AEEA-C14 diacid])ARK([γGlu-AEEA-AEEA-C14 diacid])FIAHLVG (also called 22) were, in that order, 87, 812 nM, 9.31 nM and 1180 pM.
HAEGTFTSDVSSYLEK([γGlu-AEEA-AEEA-C14 diacid])QAARK([γGlu-AEEA-AEEA-C14 diacid])FIAHLVG (also called 14): the “Ratio” value with human GLP-1 receptor [1] came to 306. For the same molecule, the IC50 in the assay with human GLP-1 receptor [2] worked out at 443 nM; with human GLP-1 receptor [4] it was 1.45 nM. Also, the “EC50/pM” value with human GLP-1 receptor [3] worked out at 42 pM.
Consider HAEGTFTSDVSSYLEEQK([AEEA-AEEA-γGlu-C14 diacid])VRK([AEEA-AEEA-γGlu-C14 diacid])FIAWLVG (also called 27), for which, in the assay with human GLP-1 receptor [1], the “Ratio” value was found to be 97. Besides, the values for the IC50 in the assay with human GLP-1 receptor [2] and in the assay with human GLP-1 receptor [4] were more than 1000 nM and 10.3 nM, respectively. In addition, the “EC50/pM” value with human GLP-1 receptor [3] came out at 835 pM.
For HAEGTFTSDVSSYLEEQK([γGlu-AEEA-AEEA-C14 diacid])VRK([γGlu-AEEA-AEEA-C14 diacid])FIAWLVG (also called 30) the same measures were 134, more than 1000 nM, 7.44 nM and 3000 pM.
